Results as given in US9695426B2, “Biofuel production by recombinant microorganisms” (The Regents of the University of California, priority 2007, dated 2017).

B1: Kivd: 2-keto-acid decarboxylase Kivd from Lactococcus lactis (protein, listed as Lactococcus lactis)
chain: MYTVGDYLLDRLHELGIEEIFGVPGDYNLQFLDQIISRKDMKWVGNANELNASYMADGYARTKKAAAFLTTFGVGELSAVNGLAGSYAENLPVVEIVGSPTSKVQNEGKFVHHTLADGDFKHFMKMHEPVTAARTLLTAENATVEIDRVLSALLKERKPVYINLPVDVAAAKAEKPSLPLKKENSTSNTSDQEILNKIQESLKNAKKPIVITGHEIISFGLEKTVSQFISKTKLPITTLNFGKSSVDEALPSFLGIYNGKLSEPNLKEFVESADFILMLGVKLTDSSTGAFTHHLNENKMISLNIDEGKIFNESIQNFDFESLISSLLDLSEIEYKGKYIDKKQEDFVPSNALLSQDRLWQAVENLTQSNETIVAEQGTSFFGASSIFLKPKSHFIGQPLWGSIGYTFPAALGSQIADKESRHLLFIGDGSLQLTVQELGLAIREKINPICFIINNDGYTVEREIHGPNQSYNDIPMWNYSKLPESFGATEERVVSKIVRTENEFVSVMKEAQADPNRMYWIELILAKEDAPKVLKKMGKLFAEQNKS
B2: ARO10: 2-keto-acid decarboxylase Aro10 from S. cerevisiae (protein, listed as Saccharomyces cerevisiae)
chain: MAPVTIEKFVNQEERHLVSNRSATIPFGEYIFKRLLSIDTKSVFGVPGDFNLSLLEYLYSPSVESAGLRWVGTCNELNAAYAADGYSRYSNKIGCLITTYGVGELSALNGIAGSFAENVKVLHIVGVAKSIDSRSSNFSDRNLHHLVPQLHDSNFKGPNHKVYHDMVKDRVACSVAYLEDIETACDQVDNVIRDIYKYSKPGYIFVPADFADMSVTCDNLVNVPRISQQDCIVYPSENQLSDIINKITSWIYSSKTPAILGDVLTDRYGVSNFLNKLICKTGIWNFSTVMGKSVIDESNPTYMGQYNGKEGLKQVYEHFELCDLVLHFGVDINEINNGHYTFTYKPNAKIIQFHPNYIRLVDTRQGNEQMFKGINFAPILKELYKRIDVSKLSLQYDSNVTQYTNETMRLEDPTNGQSSIITQVHLQKTMPKFLNPGDVVVCETGSFQFSVRDFAFPSQLKYISQGFFLSIGMALPAALGVGIAMQDHSNAHINGGNVKEDYKPRLILFEGDGAAQMTIQELSTILKCNIPLEVIIWNNNGYTIERAIMGPTRSYNDVMSWKWTKLFEAFGDFDGKYTNSTLIQCPSKLALKLEELKNSNKRSGIELLEVKLGELDFPEQLKCMVEAAALKRNKK
modifications: CDS (1)..(1908)
notes: 2-keto-acid decarboxylase Aro10 from S. cerevisiae
B3: PDC6: 2-keto-acid decarboxylase Pdc6 from S. cerevisiae (protein, listed as Saccharomyces cerevisiae)
chain: MSEITLGKYLFERLKQVNVNTIFGLPGDFNLSLLDKIYEVDGLRWAGNANELNAAYAADGYARIKGLSVLVTTFGVGELSALNGIAGSYAEHVGVLHVVGVPSISAQAKQLLLHHTLGNGDFTVFHRMSANISETTSMITDIATAPSEIDRLIRTTFITQRPSYLGLPANLVDLKVPGSLLEKPIDLSLKPNDPEAEKEVIDTVLELIQNSKNPVILSDACASRHNVKKETQKLIDLTQFPAFVTPLGKGSIDEQHPRYGGVYVGTLSKQDVKQAVESADLILSVGALLSDFNTGSFSYSYKTKNVVEFHSDYVKVKNATFLGVQMKFALQNLLKVIPDVVKGYKSVPVPTKTPANKGVPASTPLKQEWLWNELSKFLQEGDVIISETGTSAFGINQTIFPKDAYGISQVLWGSIGFTTGATLGAAFAAEEIDPNKRVILFIGDGSLQLTVQEISTMIRWGLKPYLFVLNNDGYTIEKLIHGPHAEYNEIQTWDHLALLPAFGAKKYENHKIATTGEWDALTTDSEFQKNSVIRLIELKLPVFDAPESLIKQAQLTAATNAKQ
modifications: CDS (1)..(1692)
notes: 2-keto-acid decarboxylase Pdc6 from S. cerevisiae

What was measured:
[1] = system: E. coli culture expressing kivd; test: Alcohol productions with the supply of 2-keto acids; assay type: cell-based; conditions: 2-keto acid added to E. coli culture expressing kivd
Source text: The addition of various 2-keto acids (see Table 13) to the E. coli culture expressing kivd confirmed the specific production of the corresponding alcohols by 2- to 23-fold.

[2] = system: endogenous 2-keto acids in E. coli; test: Alcohol productions with KDC and ADH in E. coli; assay type: cell-based; conditions: KDC over-produced with Adh2 in E. coli; minimal media with 0.2 M glucose
Source text: An enzyme in this alcohol production strategy is KDC, which is common in plants, yeasts and fungi but less so in bacteria. The aldehydes produced can then be converted to alcohols by an Adh, which is commonly found in many organisms. Some of the KDCs have broad-substrate ranges, while others are more specific. To test the capability of the endogenous 2-keto acids as a substrate for KDC in E. coli, five KDCs including Pdc6, Aro10, Thi3, from S. cerevisiae, Kivd from Lactococcus lactis, and Pdc from C. acetobutylycum were over-produced with alcohol dehydrogenase 2 (Adh2) of S. cerevisiae. E. coli cultures expressing these foreign genes were grown in a minimal media with 0.2 M glucose.

Molecule | Product 3-methyl-1-butanol [1] [µM] | Product 2-phenylethanol [1] [µM] | Product 1-propanol [2] [µM] | Product 2-methyl-1-butanol [2] [µM] | Product 3-methyl-1-butanol [2] [µM] | Product isobutanol [2] [µM] | also measured
CCC(C)C(=O)C(=O)O (stereo not shown) [2-keto-3-methyl-valerate] |  |  |  |  |  |  | Product 2-methyl-1-butanol [1]: 5284 µM
CC(C)CC(=O)C(=O)O [2-keto-4-methyl-pentanoate] | 3756 |  |  |  |  |  | 
CC(C)C(=O)C(=O)O [2-keto-isovalerate] |  | 109 |  |  |  |  | Product isobutanol [1]: 10016 µM
CCCC(=O)C(=O)O [2-ketovalerate] | 52 | 66 |  |  |  |  | Product 1-butanol [1]: 3926 µM
O=C(O)C(=O)Cc1ccccc1 [phenylpyruvate] | 105 | 7269 |  |  |  |  | Product 1-butanol [1]: 23 µM; Product 1-propanol [1]: 8 µM; Product isobutanol [1]: 64 µM
B1 |  |  | 520 | 766 | 1495 | 5242 | Product 1-butanol [2]: 220 µM; Product 2-phenylethanol [2]: 324 µM
B2 |  |  | 290 | 652 | 1099 | 2094 | Product 1-butanol [2]: 95 µM; Product 2-phenylethanol [2]: 469 µM
B3 |  |  | 125 | 56 | 92 | 260 | 
